The results in this text go back to patent US20120302737A1 (Genentech, published 2012).

The Kd is the constant that tells how readily two partners part at equilibrium. The low end stands for a tighter complex, the high end for a looser complex.

Test [1] has as its target T1, HER2 receptor ECD (UniProt P04626 23-652, limits assumed).
T1 construct: extracellular domain; also called HER2ECD; HER2 extracellular domain
Put plainly: Octet; antibody loaded on the probe, 1st antigen HER2. For orientation: In BLI a coated tip is dipped into the sample, and binding shifts an interference pattern.

Test [2] has as its target T2, EGFR on cells (NR6 expressing EGFR; HCA7) (UniProt P00533 25-1210, limits assumed).
T2 construct: whole, on cells; also called EGFR-NR6; EGFR-expressing NR6 cells
Put plainly: equilibrium binding on NR6 cells expressing EGFR, radiolabeled antibody competed with unlabeled antibody.

The target of test [3] is T2, EGFR on cells (NR6 expressing EGFR; …). Put plainly: equilibrium binding on HCA7 cells co-expressing EGFR and HER2, radiolabeled antibody competed with unlabeled antibody.
Test [4] concerns the target T1, HER2 receptor ECD. Put plainly: Octet; loaded probe, 1st antigen HER2.

B1: wild-type α-EGFR antibody (D1.5) (antibody, human IgG1, kappa, V domains shown)
VH: EVQLVESGGGLVQPGGSLRLSCAASGFTFTGNWIHWVRQAPGKGLEWVGEISPSGGYTDYADSVKGRFTISADTSKNTAYLQMNSLRAEDTAVYYCARESRVSYEAAMDYWGQGTLVTVSS
VL: DIQMTQSPSSLSASVGDRVTITCRASQDVSTAVAWYQQKPGKAPKLLIYSASFLYSGVPSRFSGSGSGTDFTLTISSLQPEDFATYYCQQSYPTPYTFGQGTKVEIKR
notes: also called Wt α-EGFR (D1.5); D1.5 anti-EGFR antibody
As to B1, the binding result in the test with HER2 receptor ECD [1] was “no binding”. Further, the values for the Kd in test [2] and in test [3] were 0.56 nM and 0.34 nM, respectively.

B2: one-armed α-EGFR engineered antibody (antibody)
heavy: not shown
chain: not shown
light: DIQMTQSPSSLSASVGDRVTITCRASQDVSTAVAWYQQKPGKAPKLLIYSASFLYSGVPSRFSGSGSGTDFTLTISSLQPEDFATYYCQQSYPTPYTFGQGTKVEIKRTVAAPSVFIFPPSDEQLKSGTASVVCLLNNFYPREAKVQWKVDNALQSGNSQESVTEQDSKDSTYSLSSTLTLSKADYEKHKVYACEVTHQGLSSPVTKSFNRGEC
notes: also called 1-armed α-EGFR; One-Armed EGFR
Regarding B2, the binding result with HER2 receptor ECD [4] was “no binding”. In addition, the Kd in test [2] is 1.15 nM.
